As a reminder, the Kd is a measure of binding affinity in units of concentration. Lower therefore signals a tighter complex. For orientation: stoichiometry N means a count of units in the complex or per binding partner.

This is an account of results in publication PMC10897489.

What all share (assay): ITC
In general terms: ITC needs no label: the signal is the heat of the interaction.

Test [1] addresses His-NSP3 1-181 WT (SARS-CoV-2).
Test [2] has as its target GST-NSP3 1-181 (SARS-CoV-2).
The target in a further test is FXR1 215-360 (UniProt P51114). The conditions noted are these: reference: unphosphorylated UBAP2L 243-270 peptide.
The next test concerns the target FXR1 215-360 (human).

In test [1], FXR1 215-360 (domain or fragment) gave a Kd of 2900 nM. In test [2], this substance showed a Kd of 2260 nM and a stoichiometry N of 0.9. Consider “UBAP2L 243-270 (from UniProt Q14157) pS254 peptide”, for which the “binding against the reference” value with FXR1 215-360 (sites S254) was “lost”.

For “UBAP2L 243-270 (from UniProt Q14157) pS262 peptide”, the “binding against the reference” value with FXR1 215-360 (sites S262) is given as “lost”. On to “UBAP2L 243-270 (from UniProt Q14157) pT246 peptide”, for which, in the test with FXR1 215-360 (sites T246), the KD entry was “stronger; reference 8.5”. In the test with FXR1 215-360 (human), “UBAP2L 243-270 peptide (from UniProt F8W726 243-270)” showed a Kd of 8.53 µM and a stoichiometry N of 0.96. For the substance “UBAP2L 243-270 peptide, phosphorylated on Ser254 (from UniProt F8W726 243-270)”, in the test with FXR1 215-360 (human), the Kd is 25.5 µM and the stoichiometry N was 0.92. In the same order, the values of “UBAP2L 243-270 peptide, phosphorylated on Thr246 (from UniProt F8W726 243-270)” are 3.66 µM and 0.9.
